Laboratory results: US20240190983A1 (JULIUS MAXIMILIANS UNIVERSIT T W RZBURG, published 2024)

T1: Cynomolgus TNFR2 (Macaca fascicularis (cynomolgus monkey), UniProt P20333 26-461 (human entry))
T1 construct: Expressed on transiently transfected HEK293 cells; also called TNFR2-cyno; monkey TNFR2
T1 chain: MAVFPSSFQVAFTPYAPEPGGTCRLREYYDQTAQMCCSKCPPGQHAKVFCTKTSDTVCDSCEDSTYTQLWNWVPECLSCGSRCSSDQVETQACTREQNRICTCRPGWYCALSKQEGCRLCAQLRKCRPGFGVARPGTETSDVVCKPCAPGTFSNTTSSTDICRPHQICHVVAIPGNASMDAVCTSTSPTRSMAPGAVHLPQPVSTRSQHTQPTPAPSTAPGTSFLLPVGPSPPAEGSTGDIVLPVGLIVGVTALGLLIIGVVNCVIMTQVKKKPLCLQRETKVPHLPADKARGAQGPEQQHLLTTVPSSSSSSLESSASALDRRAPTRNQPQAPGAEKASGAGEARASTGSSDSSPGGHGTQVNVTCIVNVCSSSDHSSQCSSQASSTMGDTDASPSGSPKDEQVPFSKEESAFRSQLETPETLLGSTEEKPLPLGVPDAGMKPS

T2: Murine TNFR2 (mouse, UniProt P25119 23-474)
T2 construct: Expressed on transiently transfected HEK293 cells; also called mouse TNFR2; TNFR2(mu)
T2 sequence: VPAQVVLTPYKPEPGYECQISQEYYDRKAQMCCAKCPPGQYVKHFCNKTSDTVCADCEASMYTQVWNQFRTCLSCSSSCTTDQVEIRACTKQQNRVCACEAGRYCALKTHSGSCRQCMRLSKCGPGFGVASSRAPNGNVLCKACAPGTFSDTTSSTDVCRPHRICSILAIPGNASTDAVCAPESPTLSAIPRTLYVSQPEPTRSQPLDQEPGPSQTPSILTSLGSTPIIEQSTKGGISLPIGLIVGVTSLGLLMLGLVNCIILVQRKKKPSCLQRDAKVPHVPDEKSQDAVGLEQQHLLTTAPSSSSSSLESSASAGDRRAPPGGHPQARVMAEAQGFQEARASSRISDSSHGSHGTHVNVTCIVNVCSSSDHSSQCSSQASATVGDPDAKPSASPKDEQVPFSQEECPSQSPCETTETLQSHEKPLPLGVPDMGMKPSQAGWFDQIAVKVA

T3: Human TNFR2 (human, UniProt P20333 23-461)
T3 construct: On cells: HeLa-TNFR2, HT1080-Bcl2-TNFR2, transiently transfected HEK293; endogenous on Kym-1 cells; also called huTNFR2; TNFRSF1B
T3 sequence: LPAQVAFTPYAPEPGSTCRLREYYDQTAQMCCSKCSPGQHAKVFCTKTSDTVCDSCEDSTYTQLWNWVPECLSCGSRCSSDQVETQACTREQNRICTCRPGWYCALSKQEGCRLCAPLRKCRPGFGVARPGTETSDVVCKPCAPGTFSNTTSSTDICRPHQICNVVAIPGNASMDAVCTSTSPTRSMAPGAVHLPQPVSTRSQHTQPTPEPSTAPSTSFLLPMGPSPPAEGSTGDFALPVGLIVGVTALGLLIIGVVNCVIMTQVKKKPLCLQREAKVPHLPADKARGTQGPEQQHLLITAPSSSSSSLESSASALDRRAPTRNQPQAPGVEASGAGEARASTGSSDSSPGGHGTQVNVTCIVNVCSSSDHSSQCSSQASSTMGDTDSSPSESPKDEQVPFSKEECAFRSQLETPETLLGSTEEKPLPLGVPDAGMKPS

B1: VHH:C178-Fc-GpL (Fc fusion)
VHH: DVQLVESGGGLVHPGGSLRLSCAASGFTFSADDATWARQPPGKGLEWISTLYFDTEEKTYADSVKGRFIISRDIAKNTVYLQMNNLKPEDTGMYVCTATWAGGSLLRPASFGVWGQGTQVTVSS
notes: also called VHH-Fc-GpL format protein of C178; not shown: The Fc domain, the C-terminal GpL reporter and the linkers or tags of the VHH-Fc-GpL construct; No entry gives the joined chain or says which Fc variant was used
B2: VHH:C12-Fc-GpL (Fc fusion)
VHH: DVQLVESGGGLVQPGGSLRLSCGGSGFTFSSYGMSWVRQAPGKGLEWVSGIYDDGSVTDYADSVKGRFTISRDDAKNTVYLQMNSLKSEDTALYYCATGEDGELNYWGQGTQVTVSS
notes: also called VHH-Fc-GpL format protein of C12; not shown: The Fc domain, the C-terminal GpL reporter and the linkers or tags of the VHH-Fc-GpL construct; No entry gives the joined chain or says which Fc variant was used
B3: VHH:C188-Fc-GpL (Fc fusion, Gaussia princeps)
chain: DVQLVESGGGSVQTGGSLTLSCAISGSTSERYCLGWFRQAPGREREGVAATSLTGRGAQFYADSVKGRFTISLDDAKNTLYLQMDSLRPDDTAVYYCAEDVGFLCGYDSDNDPFYDWGQGTQVTVSS
notes: also called VHH-Fc-GpL format protein of C188; not shown: Fc domain; Gaussia princeps luciferase (GpL) reporter domain at the C-terminus of the Fc
B4: C4-IgG1(N297A)-LC:GpL-HC:scFvC4 (antibody)
light: EVKLVPRQLDIVMTQSHKFMSTSVGDRVSITCKASQDVDTAVAWYQQKPGQSPKLLIYWASTRHTGVPDRFTGSGSGTDYTLTISSVQAEDLARYYCQQYYSVPPTFGGGTKLGSEIKRTVAAPSVFIFPPSDEQLKSGTASVVCLLNNFYPREAKVQWKVDNALQSGNSQESVTEQDSKDSTYSLSSTLTLSKADYEKHKVYACEVTHQGLSSPVTKSFNRGECLEKPTENNEDFNIVAVASNFATTDLDADRGKLPGKKLPLEVLKEMEANARKAGCTRGCLICLSHIKCTPKMKKFIPGRCHTYEGDKESAQGGIGEAIVDIPEIPGFKDLEPMEQFIAQVDLCVDCTTGCLKGLANVQCSDLLKKWLPQRCATFASKIQGQVDKIKGAGGD
heavy: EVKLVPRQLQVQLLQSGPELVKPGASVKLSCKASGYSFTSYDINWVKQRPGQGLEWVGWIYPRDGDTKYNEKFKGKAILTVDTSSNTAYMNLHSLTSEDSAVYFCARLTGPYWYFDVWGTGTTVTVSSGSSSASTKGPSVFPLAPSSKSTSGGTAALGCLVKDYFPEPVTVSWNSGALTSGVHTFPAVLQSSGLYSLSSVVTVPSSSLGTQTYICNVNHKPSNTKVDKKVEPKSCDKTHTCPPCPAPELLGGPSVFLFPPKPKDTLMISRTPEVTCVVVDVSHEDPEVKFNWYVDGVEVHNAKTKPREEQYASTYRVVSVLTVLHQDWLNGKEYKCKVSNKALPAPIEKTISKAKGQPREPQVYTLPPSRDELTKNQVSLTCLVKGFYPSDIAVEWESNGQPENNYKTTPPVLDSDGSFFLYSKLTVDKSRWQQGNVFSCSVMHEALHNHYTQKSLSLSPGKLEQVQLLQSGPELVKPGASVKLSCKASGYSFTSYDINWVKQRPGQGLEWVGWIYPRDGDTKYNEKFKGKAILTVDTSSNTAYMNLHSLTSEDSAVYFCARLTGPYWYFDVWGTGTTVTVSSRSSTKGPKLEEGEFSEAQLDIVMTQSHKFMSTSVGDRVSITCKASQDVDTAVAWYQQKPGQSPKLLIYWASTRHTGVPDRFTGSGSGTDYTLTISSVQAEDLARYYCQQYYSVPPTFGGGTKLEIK
notes: copies: 2 + 2
B5: VHH:C238-Fc-GpL (Fc fusion)
VHH: QVQLVESGGGSVQPGGSLTLSCVDSGSAYLSYCMAWFRQAPGKEREGVAAIYYGGDSYYADSVKGRFTISQDHAKNTMYLQMNSLKPEDTAVYYCAADVGFICGYDSDNDPPNDWGQGTQVTVSS
notes: also called VHH-Fc-GpL format protein of C238; not shown: the listing has no entry for the VHH-Fc-GpL format

Columns and labels:
[1] = molecular target: T4, African green monkey TNFR2 (Chlorocebus sabaeus (African green …)); assay: equilibrium binding of VHH-Fc-GpL to cells expressing African green monkey TNFR2, 37 C; column head Affinity (ng/ml)
T4 construct: whole, on cells
Protocol: (§1) Specific binding (open circles) was obtained by subtraction of the non-specific binding values (Hek293 cells—crosses) from the binding values for transfectants expressing human TNFR2 (total binding—closed circles). Specific binding was analyzed with the “nonlinear regression to a one-site specific binding curve” function of the GraphPad Prism5 software.
(§2) The equivalent experiment was also performed using TNFR2 from different species, namely from Mus musculus (mouse), Macaca fascicularis (cynomolgus monkey), and Chlorocebus sabaeus (African green monkey) to study the ability of the VHH regions to bind to TNFR2 from different species. The ability to cross react to TNFR2 from different species can be helpful in allowing the antibodies to be studied in various models before assessment in human patients.

Cynomolgus TNFR2 [2] = molecular target: T1, Cynomolgus TNFR2; assay: equilibrium binding of VHH-Fc-GpL to cells expressing cynomolgus TNFR2, 37 C
Protocol: as §1, §2

Murine TNFR2 [3] = molecular target: T2, Murine TNFR2; assay: equilibrium binding of VHH-Fc-GpL to cells expressing mouse TNFR2, 37 C
Protocol: as §1, §2

Human TNFR2 [4] = molecular target: T3, Human TNFR2; assay: equilibrium binding of VHH-Fc-GpL to cells expressing human TNFR2, 37 °C; HEK293 cells as unspecific binding; one-site fit of specific binding
Cynomolgus TNFR2 [5] = molecular target: T1, Cynomolgus TNFR2; assay: equilibrium binding of VHH-Fc-GpL to cells expressing cynomolgus TNFR2, 37 C; column head Affinity (ng/ml)
Protocol: as §1, §2

Murine TNFR2 [6] = molecular target: T2, Murine TNFR2; assay: equilibrium binding of VHH-Fc-GpL to cells expressing mouse TNFR2, 37 C; column head Affinity (ng/ml)
Protocol: as §1, §2

Human TNFR2 [7] = molecular target: T3, Human TNFR2; assay: specific binding of the GpL fusion protein to HeLa-TNFR2 cells after 8 h, HeLa values subtracted, luciferase activity normalised to GpL per binding site
Protocol: HeLa-TNFR2 cells were pretreated with 3-10 μg/ml of the indicated anti-TNFR2 antibodies or remained untreated. […] Supernatants of HeLa-TNFR2 cells were then analyzed for TNFR2-induced IL8 production (B) and repeatedly washed cells (HeLa, and HeLa-TNFR2) were analyzed for cell-associated GpL activity. Specific binding to TNFR2, shown in (A) was calculated by subtraction of the unspecific binding values obtained from the HeLa cells from the total binding values derived of the HeLa-TNFR2 cells. […] The latter was transformed into “occupied receptors per cells” by help of the number of cells in the assay and the measured specific activity (RLU/molecule) of the GpL constructs.
Supernatants of HeLa-TNFR2 were then analyzed for TNFR2-induced IL8 production with the results shown in (B). Repeatedly washed cells (HeLa, and HeLa-TNFR2) were analyzed for cell-associated GpL activity. Specific binding to TNFR2, was calculated by subtraction of the unspecific binding values obtained from the HeLa cells from the total binding values derived of the HeLa-TNFR2 cells with the results obtained shown in (A).

Row | Binder | Kd [1] [µg/mL] | binding result (Cynomolgus TNFR2 [2]) | binding result (Murine TNFR2 [3]) | Kd (Human TNFR2 [4]) [µg/mL] | Kd (Cynomolgus TNFR2 [5]) [µg/mL] | Kd (Murine TNFR2 [6]) [µg/mL] | binding result (Human TNFR2 [7])
1 | B1 | 0.06 | no binding | no binding | 0.9 | – | – | –
2 | B2 | 0.08 | no binding | no binding | 0.8 | – | – | –
3 | B3 | 0.15 | – | – | 0.57 | 0.45 | 0.95 | –
4 | B4 | – | – | – | – | – | – | binds
5 | B5 | 0.17 | – | – | 0.67 | 0.2 | 1.05 | –
